Binding result and Kd data for one molecule are collected here from article PMC4148193, “Chromatin Insulator Factors Involved in Long-Range DNA Interactions and Their Role in the Folding of the Drosophila Genome” (PLoS Genetics, 2014).

One series has as its target T1, Chromator-C (Drosophila, UniProt Q86BS3 601-926).
T1 sequence: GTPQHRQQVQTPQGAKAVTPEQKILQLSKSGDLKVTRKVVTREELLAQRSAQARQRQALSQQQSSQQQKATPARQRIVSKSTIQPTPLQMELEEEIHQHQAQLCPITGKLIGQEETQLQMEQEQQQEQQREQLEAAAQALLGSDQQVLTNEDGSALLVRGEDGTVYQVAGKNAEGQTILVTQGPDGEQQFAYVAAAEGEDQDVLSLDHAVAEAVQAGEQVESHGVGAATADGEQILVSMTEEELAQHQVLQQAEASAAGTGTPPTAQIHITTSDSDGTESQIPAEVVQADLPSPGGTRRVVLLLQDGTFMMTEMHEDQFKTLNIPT
As to the kind of experiment: fluorescence anisotropy; FA/FCS: 30 mM Tris/HCl pH 7.5, 100 mM NaCl, 20 uM ZnSO4, 5 mM mercaptoethanol, 0.01 mg/ml BSA, 0.004% Tween20, 2.5 nM DNA; EMSA: 150 mM NaCl, 30 mM Tris/HCl pH. As to conditions: protein: recombinant; tags: N-term 6xHis; blunt.

Another series addresses T2, Chromator (Drosophila, UniProt Q86BS3 1-926).
T2 sequence: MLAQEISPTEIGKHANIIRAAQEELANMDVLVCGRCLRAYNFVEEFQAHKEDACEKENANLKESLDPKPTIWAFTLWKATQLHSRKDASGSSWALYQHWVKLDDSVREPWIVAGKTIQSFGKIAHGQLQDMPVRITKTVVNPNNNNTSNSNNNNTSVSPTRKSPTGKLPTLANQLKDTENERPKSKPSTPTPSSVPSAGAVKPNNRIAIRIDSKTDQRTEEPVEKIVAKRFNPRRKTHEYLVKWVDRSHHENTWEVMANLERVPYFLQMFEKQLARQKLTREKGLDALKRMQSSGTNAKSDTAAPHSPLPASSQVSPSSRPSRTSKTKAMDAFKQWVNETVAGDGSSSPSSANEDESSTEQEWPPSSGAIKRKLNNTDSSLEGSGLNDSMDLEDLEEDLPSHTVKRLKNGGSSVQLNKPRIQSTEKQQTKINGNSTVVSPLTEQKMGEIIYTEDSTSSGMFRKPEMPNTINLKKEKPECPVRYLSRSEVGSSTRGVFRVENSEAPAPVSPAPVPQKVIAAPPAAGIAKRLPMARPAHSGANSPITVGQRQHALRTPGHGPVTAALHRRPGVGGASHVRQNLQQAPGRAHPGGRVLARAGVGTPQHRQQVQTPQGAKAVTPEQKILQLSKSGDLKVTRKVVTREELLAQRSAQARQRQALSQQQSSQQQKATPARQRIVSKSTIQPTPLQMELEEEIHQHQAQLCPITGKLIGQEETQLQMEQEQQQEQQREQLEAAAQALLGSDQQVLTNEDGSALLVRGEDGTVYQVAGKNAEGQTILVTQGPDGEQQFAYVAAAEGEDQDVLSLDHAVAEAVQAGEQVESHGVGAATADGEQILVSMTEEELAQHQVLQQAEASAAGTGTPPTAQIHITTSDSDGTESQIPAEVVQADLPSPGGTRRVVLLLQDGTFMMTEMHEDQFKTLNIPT
The series can be described thus: fluorescence anisotropy; Hill n=2±0.2; 20 uM ZnSO4; FA/FCS: 30 mM Tris/HCl pH 7.5, 100 mM NaCl, 20 uM ZnSO4, 5 mM mercaptoethanol, 0.01 mg/ml BSA, 0.004% Tween20, 2.5 nM DNA; EMSA: 150 mM NaCl, 30 mM Tris/HCl pH. As to conditions: protein: recombinant; tags: N-term 6xHis; blunt.

The target in series [1] is T3, BEAF32 (BEAF32B);Chromator (Drosophila;Drosophila, UniProt Q94513;Q86BS3 1-282;1-926, |).
T3 sequence 1: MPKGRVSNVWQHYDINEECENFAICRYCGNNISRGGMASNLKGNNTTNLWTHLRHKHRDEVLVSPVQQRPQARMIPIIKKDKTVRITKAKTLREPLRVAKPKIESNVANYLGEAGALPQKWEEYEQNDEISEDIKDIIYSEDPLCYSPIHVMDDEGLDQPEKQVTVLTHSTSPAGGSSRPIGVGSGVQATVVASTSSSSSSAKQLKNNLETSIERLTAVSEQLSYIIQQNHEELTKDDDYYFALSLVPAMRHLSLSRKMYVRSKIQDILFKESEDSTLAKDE
T3 sequence 2: T2 sequence
As to the kind of experiment: FCS/PIE-FCCS; 800 nM BEAF32, 100 nM Chromator; cross-correlation 13±4%, 47±14% of complexes bridged; FA/FCS: 30 mM Tris/HCl pH 7.5, 100 mM NaCl, 20 uM ZnSO4, 5 mM mercaptoethanol, 0.01 mg/ml BSA, 0.004% Tween20, 2.5 nM DNA; EMSA: 150 mM NaCl, 30 mM Tris/HCl pH. As to conditions: protein: recombinant;recombinant; tags: N-term MBP; C-term 6xHis;N-term 6xHis; blunt. In general terms: In EMSA bound probe runs differently from free probe, usually more slowly.

B1: DNAS (dsDNA)
DNA 1: AGAAGTCAGCGCGATAGCATCGATATTTTCGTGACACGCTTGTCATCCGATAGGTAGT
DNA 2: ACTACCTATCGGATGACAAGCGTGTCACGAAAATATCGATGCTATCGCGCTGACTTCT
For B1, the values for the binding result (with Chromator-C; in series [1]) were “no binding” and “binds”, respectively. Further, in the series with Chromator, the Kd came out at 360 ± 30 nM.

Usually Kd stands for the equilibrium constant for the complex coming apart.
